Measured values as given in patent US20170044545, “APTAMER FOR BONDING TO AUTOTAXIN AND INHIBITING BIOLOGICAL ACTIVITY OF AUTOTAXIN, AND USE FOR SAME” (RIBOMIC INC., published 2017).

B1: SEQ 16(64) (mixed)
RNA: UCUGAGGGAAACAGGUUUUGCUCCUCGGA
modifications: dT1; 2'-deoxy G8,G14,G15,C23,C26; 2'-OMe G4,A5,G6,G7,A9,A11,A13,G20,G27,G28,A29; 2'-OH A10 with PS; other pyrimidines 2'-F; 5' 80 kDa PEG (GL4-800GS2)-ssH linker; 3' idT
B2: SEQ 9 clone (ssRNA)
RNA: GGGUGGCAACAGGACAUGGAACGCGCCCCAACUGCUUGAAACUGGUUUUGCUGAGCAGUGAUGUGAGAUGCGUCUUCGUAC
modifications: 2'-F pyrimidines, 2'-OH purines
B3: SEQ 16(52) (mixed)
RNA: UCUGAGGGAAACAGGUUUUGCUCCUCGGA
modifications: dT1; 2'-deoxy G8,G14,G15; 2'-OMe G4,A5,G6,G7,A9,A11,A13,G20,G27,G28,A29; 2'-OH A10; other pyrimidines 2'-F; 5' 80 kDa PEG (GL2-800GS2)-ssH linker; 3' idT
B4: SEQ 16(58) (mixed)
RNA: UCUGAGGGAAACAGGUUUUGCUCCUCGGA
modifications: dT1; 2'-deoxy G8,G14,G15,C23,C26; 2'-OMe G4,A5,G6,G7,A9,A11,A13,G20,C21,G27,G28,A29; 2'-OH A10 with PS; other pyrimidines 2'-F; 5' and 3' idT
B5: SEQ 4 aptamer (ssRNA)
RNA: GGGACCGCACUCUAAACGCUCUGAGGGAAACAGGUUUUGCUCCUCGGAGCGUGGACGAAGUGAGACGUAUCCG
modifications: 2'-F pyrimidines, 2'-OH purines
B6: SEQ 16(21) (mixed)
RNA: UCUGAGGGAAACAGGUUUUGCUCCUCGGA
modifications: 2'-F all pyrimidines; 2'-OMe G4 A5 G6 G7 A9 A11 A13 G20 G27 G28 A29; 2'-OH A10; dG8 dG14 dG15; 5' and 3' idT
B7: SEQ 16(63) (mixed)
RNA: UCUGAGGGAAACAGGUUUUGCUCCUCGGA
modifications: dT1; 2'-deoxy G8,G14,G15,C23,C26; 2'-OMe G4,A5,G6,G7,A9,A11,A13,G20,G27,G28,A29; 2'-OH A10 with PS; other pyrimidines 2'-F; 5' 40 kDa PEG (GL2-400GS2)-ssH linker; 3' idT
B8: SEQ 16(67) (mixed)
RNA: UCUGAGGGAAACAGGUUUUGCUCCUCGGA
modifications: dT1; 2'-deoxy G8,G14,G15,C23,C26; 2'-OMe C2,U3,G4,A5,G6,G7,A9,A11,A13,G20,C21,U22,C24,U25,G27,G28,A29; 2'-OH A10 with PS; other pyrimidines 2'-F; 5' 80 kDa PEG (GL2-800GS2)-ssH linker; 3' idT
B9: SEQ 16(51) (mixed)
RNA: UCUGAGGGAAACAGGUUUUGCUCCUCGGA
modifications: 2'-deoxy G8,G14,G15,C23,C26; 2'-OMe G4,A5,G6,G7,A9,A11,A13,G20,G27,G28,A29; 2'-OH A10 with PS; other pyrimidines 2'-F; 5' 80 kDa PEG (GL2-800GS2)-ssH linker; 3' idT

Key:
Autotaxin (ENPP2, NPP2) [1] = target: T1, Autotaxin (ENPP2, NPP2) (Homo sapiens, UniProt Q13822 Q13822:36-863); test: inhibition
Autotaxin (ENPP2, NPP2) [2] = target: T1, Autotaxin (ENPP2, NPP2); test: inhibition; NPP2 assay, pNP-TMP substrate, solution A (Ca, Mg), 37 C
Autotaxin (ENPP2, NPP2) [3] = target: T1, Autotaxin (ENPP2, NPP2); test: SPR
Autotaxin (ENPP2, NPP2) [4] = target: T1, Autotaxin (ENPP2, NPP2); test: SPR; not more than 10% of SEQ 4
FGF2 = FGF2 (UniProt P09038 P09038:135-288); test: SPR; FGF2 immobilized about 1100 RU; specificity control; settings: tags: PeproTech
FGF2, sequence (P09038 135-288, one chain of several): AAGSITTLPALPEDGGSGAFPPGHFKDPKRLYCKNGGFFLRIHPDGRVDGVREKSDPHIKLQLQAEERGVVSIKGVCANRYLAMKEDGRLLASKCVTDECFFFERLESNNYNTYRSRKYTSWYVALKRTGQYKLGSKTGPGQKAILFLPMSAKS
Protocol: Whether the nucleic acids of SEQ ID NOs: 8 and 9 bind to autotaxin was evaluated by the surface plasmon resonance method. For the measurement, Biacore T100 manufactured by GE Healthcare was used, and the measurement was performed by the method shown below. About 2700 RU autotaxin was immobilized on a sensorchip surface of CM4 chip by using an amino coupling kit. The flow rate was 20 μL/min, and nucleic acids (20 μL) prepared to 0.3 μM were injected as an analyte. As a running buffer, solution A was used. In Table 1, nucleic acids showing a binding amount of not more than 10% of that of the aptamer of SEQ ID NO: 4 were considered not binding and marked with (−), and ones not less than that were considered binding and marked with (+).
Whether the aptamer shown in SEQ ID NO: 16(23) has a binding activity to FGF2 (PeproTech) was confirmed by the surface plasmon resonance method. Autotaxin was immobilized on a flow cell 2 and FGF2 was immobilized on a flow cell 3 (about 1100 RU), and the aptamer was injected. The rest was performed similarly to Example 2.

Autotaxin (ENPP2, NPP2) [5] = target: T1, Autotaxin (ENPP2, NPP2); test: inhibition; pNP-TMP 1 mM, autotaxin 0.3 nM, 37 C 24 h, solution A

Binder | IC50 (Autotaxin (ENPP2, NPP2) [1]) [nM] | also measured
UCUGAGGGAAACAGGUUUUGCUCCUCGGA (mixed, as 16(4) with dT16) [SEQ 16(19)] | 51 | 
UCUGAGGGAAACAGGUUUUGCUCCUCGGA (mixed, as 16(21) with dT25) [SEQ 16(27)] | 3.2 | 
UCUGAGGGAAACAGGUUUUGCUCCUCGGA (mixed, as 16(21) with ssH linker instead of 5' idT) [SEQ 16(30)] | 4.4 | 
B1 |  | IC50 (Autotaxin (ENPP2, NPP2) [2]): 1.3 nM
UCUGAGGGAAUCAGGAUUUGCUCCUCGGA (ssRNA, 2'-F pyrimidines, 2'-OH purines) [SEQ 28] |  | binding result (Autotaxin (ENPP2, NPP2) [3]): no binding
B2 |  | binding result (Autotaxin (ENPP2, NPP2) [4]): no binding
B3 |  | IC50 (Autotaxin (ENPP2, NPP2) [2]): 9.4 nM
B4 |  | IC50 (Autotaxin (ENPP2, NPP2) [2]): 0.6 nM
UCUGAGGGAAACAGGUUUUGCUCCUCGGA (mixed, as 16(21) with PS at A10) [SEQ 16(22)] | 0.5 | 
UCUGAGGGAAACAGGUUUUGCUCCUCGGA (mixed, as 16(21) with dT1 dC2 dT3 dC23 dC24 dC26) [SEQ 16(32)] | 1.4 | 
UCUGAGGGAAACAGGUUUUGCUCCUCGGA (mixed, as 16(4) with dC12) [SEQ 16(20)] | 44 | 
UCUGAGGGAAACAGGUUUUGCUCCUCGGA (mixed, as 16(21) with dT1 dC2 dT3) [SEQ 16(25)] | 2.3 | 
UCUGAGGGAAACAGGUUUUGCUCCUCGGA (mixed, as 16(22) with 5' 40 kDa PEG (GL2-400GS2)-ssH linker instead of 5' idT) [SEQ 16(23)] | 1.1 | binding result (FGF2): no binding
B5 |  | IC50 (Autotaxin (ENPP2, NPP2) [5]): 7 nM
B6 | 2.2 | 
UCUGAGGGAAACAGGUUUUGCUCCUCGGA (mixed, as 16(21) with dC23) [SEQ 16(29)] | 3.3 | 
B7 |  | IC50 (Autotaxin (ENPP2, NPP2) [2]): 0.8 nM
B8 |  | IC50 (Autotaxin (ENPP2, NPP2) [2]): 0.6 nM
UCUGAGGGAAACAGGUUUUGCUCCUCGGA (mixed, as 16(21) with dC24) [SEQ 16(28)] | 2.7 | 
B9 |  | IC50 (Autotaxin (ENPP2, NPP2) [2]): 2.8 nM
UCUGAGGGAAGCAGGUUUUGCUCCUCGGA (ssRNA, 2'-F pyrimidines, 2'-OH purines) [SEQ 35] |  | binding result (Autotaxin (ENPP2, NPP2) [3]): no binding
